The source of these data is a protein production outcome set (Wang et al. 2014).

The data set in a line: label from the status in PepcDB records.
Regarding “EFVINPNGKSEVCILHEYMQRVLKVRPVYNFFECENPSEPFGASVTIDGVTYGSGTASSKKLAKNKAARATLEILIPDFVKQTSE”, the protein production entry is on record as “not failed”.
As for “EIEICPKVTQSIHIEKSDTAADTYGFSLSSVEEDGIRRLYVNSVKETGLASKKGLKAGDEILEINNRAADALNSSMLKDFLSQPSLGLLVRTYPELEEGVE”, the protein production entry was “not failed”.
Regarding “EIILANISDTVFVTDLSGKFTFICSNIDNIFGYSLAEVNAMGTVETLLGDFRFNEYELKEKGELKNLRHDVQDKQGKIHYLLINLKKVAINGGIYLYSCRDISE”, the protein production result is recorded as “failed”.
For the sequence “EKITILADAIPELHVEEANDKVMGSIDWEAALKQSAGKEDLAQEMLQMLVDFIPEVNEWIDKALESDISEEELCHYIHKLHGSSSYCGVPRLKQLCNLIETSLRQHQTISDIEPELFELQDEMEKVTKDANLLLSN”, the protein production result is listed as “not failed”.
Turning to “ELDDATCDDIYSGYLKAYEQNWTAYPDAKGVLDRAVATGAPVGILTNGAAPMQQDKLDRTGLGLPELVMLAASTLDSAKPRPEMYARALTHLGARTATIIGDDWTNDVAAPRELGWNALYLDRSGTDPRADIHSLDELFH”, the protein production result was “failed”.
With “ELREARLNAFFSGAPVGMSILDNQLRFVQINELIAHIHGKPAQEHIGKTLEEIAPRIAPLVTPLCQKVLLTGQPILNVELSLPAVNQADSLRHFLVSYFPIPGEGNQLSGVGKVIVEISDVYDELRLRKRAEEALKESI”, the protein production entry is reported as “not failed”.
Consider “EMVDDQAMNEQLYYYFDPGDFKPPLVVYFSGFRLALGVEGANMMRALEAPALIFGEQRILGGSFYVGSKKFEQEIVRIIQTTLKKLGFTANQLVLSGLSMGTYASLYY”, for which the protein production entry is recorded as “failed”.
Turning to “ENGSRKQLYRLDLKTLEISQIQTGEDVVQWFGVATDNGAVWYSGQSANNADRLYRLDGTKGKLVWDLSAEKLANIDFTPARDWNYTAPDGTVVEGWYYLPPQFDPSKKYPMLVYYYGGTSPINRTLEGHYSLAMYAAQGYVVYTLNPSGTTGYGQEYAARHVNAWGDRTADEIIGATKEFIRTHSFVNGKK”, the protein production entry is recorded as “failed”.
Take “ENIKTILLTVLVVISLVFTWGIWTFQPNFSEGSSSTESTVRVKHKIEKTTQKLSETVRPRDMFIHDDGAHYKVDDNALYEEIWSDLPHWDVKGIKDISDQYDKAGFKSWFYGIGGSEAKLDLQFSDTIPIDIFQTLFKWSNQSFEYSSFDHILIPFNETKANKKIYLVSYSKQLILEVTVESANYRNIMNDLKNRQSNMPAFSLFSIGSKKEFLLPNKPLTMDKKEFVTESIKTNTFKQALFSDPSIVREDSNYNNRNVLTDGISRLDVNLSQRQVQFQQRNLVQSTSYQTGELIKKSQKYLEDTGSWTDHYQFFNINDSQQLSFYIFMDQIPVINSTAKPFGATSAITVQWANDDILSYKRPNYSLGTNPIKTSETELMGGSEVKMLLSKQTAYDTDKIDQIFLAYQLVSTSTNDDPLVELEPVWAMKVNGKIVPITKDLLRKEGANSGVE”: the protein production entry is on record as “failed”.
Take “EPAPRGFLLIGANRVAREIGQALARYDRRVLMTDSNWEYISQVRMMGLDYYYGNPISSHADDNLNMIGIGQVVALTPDQHFNIMACMQF”: the protein production entry was “failed”.
For the sequence “EPEKLGQALTEVYAKANSFTVSSVAAPSWLHRFIIGKKGQNLAKITQQMPKVHIEFTEGEDKITLEGPTEDVSVAQEQIEGMVKDLINR”, the protein production entry is given as “not failed”.
Turning to “EPPDERAVADGWQQLVELGAVDSQHVLTAIGREMARLPVDVKSARMLVAARQHGCVHEMTVIAAFLGVQDPRERPPEAREAADNAHAKFADAR”, the protein production result is “not failed”.
“EQEDKVSGEKTLAVVSASSDDRPSTRGIINDNTYALGVFRTTANTYAPLYNVKHIYSGGEWGADDVIKVDYRNASFFAYYPYHTATGNYAGLAGGTTLTLQAQLFNAGEDICYGAGEASGGGPVSVYNPFVEFLNMKHAYARLRLTLTRGEKFDKTKKCNIQNITFKSNNANFYLTRSLDIASTAGATGGSAVAAGYVHNPNVNIATGKSVTYEYMFPPQPLDGSKLTILVTVDGVTRSCDISTLGSSLDSGKYYGVSLTFTDVGIILSSAVVTVNNFGGQGNTQVDTEL”: the protein production entry was “not failed”.
Turning to “EQQADGTWLMDGWISIRKASNLLEHDLVDEAERYSTLGGYLLWQFGYIPAAGEQITVDGLIFEIVSVNKHNIGKVRVHRTQ”, the protein production result was “not failed”.
As for “EREEEPAVQGNPDESLTVEGALEYVELAPQLNLPQQEEDADFHTVAGLIMEELQTIPDVGDFADFHGWRFEVVEKEGQRIERVKITKLP”, the protein production result is recorded as “not failed”.
Regarding “ERLETAQDLLELEGITPELAAKLAERQVHTRDDLAELSTDELAEIAGLQEEEASDLIMRARAHWFDEE”, the protein production result is “failed”.
Next, “ERLILCSPYFIPDESLLEAVTSACYRGVTVELFVSEQADQFAIDHAQSSYYQALLEAGVKIYQFPKPDVLHTKYMIADPDDTTGNEALGVLGSSNLDIRSFGLNYEISLMIAKGNLIHELNALTDRYRTVSFKLTLDKWNQR”: “failed”; “ERRLCAILAADMAGYSRLMERNETDVLNRQKLYRRELIDPAIAQAGGQIVKTTGDGMLARFDTAQAALRCALEIQQAMQQREEDTPRKERIQYRIGINIGDIVLEDGDIFGDAVNVAARLEAISEPGAICVSDIVHQITQDRVSEPFTDLGLQKVKNITRPIRVWQWVPDADRDQSHDPQPSHVQH”: “not failed”.
Then “ESICLIGHSLGGDLARYFASEFEEVKKLILLDGGYLDLDKILPLDTELEETKNYIKSQIVSDLDVLTSKEKSEAKHWSENMEKAVRQSYHWNVEYNRYELAINYENIEAILRLRRKIQAFKREVGDTLFISPRYPNEATWREEALKELPDYFDTIFLENFGHELYTQAPKEIASLMNEWL”, with “failed”; and “ESKYIEYKKSRKGLSNDIWSTYSAFANTEGGTIYLGIEEKKIEDKKVFVSVGVEDPEKMIEDFWNALYGRSKVSQNILSNKDVKIVNIENKACIEIHVPEAPYSKKPIYVDNKKDLVYKRVDDADRIATEEEYKFMIVNSQDDIDTELLDNYDMSDLNHESIENYRKLLLKNTNDERYANMSQLDLMIDLGAYRKDRSSKDKQYKMTTACLLFFGKYNAISDRFPGFQLDYFKKTNYLDTDWKDRISSGDLGNEDLNVYSFFEKVLIKLTDNIEESFSLNDGLTRQNYARDLKVAIREALVNTLMHAYYDTKQSIKIVNCEDFIEFYNPGNMRINKEDFIHGGHSKDRNSILSTLFRRVGYSEKAGSGGPRIFDVVNRHKLKTPEIELTDMDTNVVLWKQDLMKEFEKYPELDKKVIKYIIDYGSISKGEALKMENMTEYQFRNILKKLKDDNLIKKEGEGPATKYVL”, with “failed”.
Consider “ESTLVNENVLENIPMGIIVVDINCNITSINDYALNIMDKNIESVIGMPVLDIIPTSDTPLVIKTKEKKLGKTQHINKHIVISNCCPIISNNNVIGALCVFQDIS”, for which the protein production entry is on record as “failed”.
In the case of “EVGVNMAVTPGKVIFQNEIMQLIQYEPATATVQRTPLLIVPPWINKYYILDLKPEKSFIKWCVDQGLTVFVISWVNPDKSLADKDFADYMKLGPLTAMDVVEKVTGEMKVHTLGYCVGGTLLASTLAWLAERRRVRVTSATFLTTQVDFTHAGDLMVFVDEEQISAVEREMKVTGVLEGAKMAMAFNMLRPNDLIWSYVVNNYLKGQPPQAFDLLHWNSDATRMPAANHSYYLRNCYLDNKLSAGTMVLDNTTLDLTKVKVPIYNLATREDHIAPAESVLYGSQFFGGPVKFVLSGSGHI”, the protein production result is listed as “failed”.
“EWQHRGYGRELLAEAERIAREEFDAKKMLIISGVGVREYYRKFGYRKDGPYVSKRLDKRYADYKRTNRFDAELNT”: the protein production result was “failed”.
On to “EYSENNAPLFIRAVNSVASTTGAPPWANLVSILEEKNGADPELLVYTVTLINKTLAALPDQDSFYDVTDALEQQGMEALVQRHLGTAGTDVDLRTQLVLYENALKLEDGDI”, for which the protein production result was “failed”.
Consider “FETRAKGRSGEALRSLLNLGAKDAAIIRDNREVRIPIQSLQVGDVFVVRPGEKIATDGVVVEGTSAVDQSMITGESVPVEVAQGSHVTGATMNTSGRLLVTAQRVGADTTLAAMGRLVAEAQSNKAPVQKLVDKISQ”, for which the protein production result is “failed”.
Turning to “FFSVSNIGLHARAYKDKLFVHTASLRSGNPYKQVDLLVLDAKGETVLQGATDDNGNALLNYTLNAGHVLVSRNGRDISILPFNQPALDLSEFAVAGRENPWFDVFAWSGRDLYRPGEMLRISALLRDRDGKPVKPQPVFLRLKQPDGKTFRETRLQPAEQGYLEFTQKIPSDAPTGRWRVEFRTDPASKEAVQGLAVRVEEFLPERMKLELSSAQPVLRAKAPFTLTADAAYLYGAPAAGNRFTANLAVAVEQHPLDNMPGWFFGDATL”, the protein production result is given as “failed”.
“FKVRVGEPGQAGNPALVSAYGTGLEGGTTGIQSEFFINTTRAGPGTLSVTIEGPSKVKMDCQETPEGYKVMYTPMAPGNYLISVKYGGPNHIVGSPFKAKVTGQRLVSPGSANETSSI”: the protein production result is given as “not failed”.
Next, “FLTEFINYIKKSKVVLLEDLAFQMGLRTQDAINRIQDLLTEGTLTGVIDDRGKFIYITP”: “not failed”; “FMPTEKDVKTLQLTMKEYEAKDDWQLYLWKENEDFVGIMGIVKKENQVLEIQHLSVNPSHRHVGIGTKMVQELKSKFLEFTICGNEQTASFCEKC”: “failed”; “FTNHKGNPMQTERFNKILREAAKDVGIDKEVSSHILRHSHISLLSQQGVSLKAIMDRVGHSDHRTTLSIYSHVTEQMDKDMMNKLEQVKLG”: “failed”.
“GAAGPWRLPIGNSVVASSPPVLQANAETWLDFTDLVFIDPVGTGYSRFVASGDEVRKHFYAVEGDISAMAVVIRRWLEKNDRLVSPKYLAGESYGGIRGPKVVDNLQTKQGVGVNGLILVSPVLDFRDLSGSSLLQYAARLPSMTAVARQQKGKVNRADLADVESYARSEFLTDLVKGEADKEATTRLADRVSALTGIDKTVSRRLAGRFDTREFQREFDRDRGRVTGRFDGAKLGLDPFPDSSAAHFGDPSADSLIAPLTSAAVQLTRSTLNWKPDGSYELLNGSVAEQWDFGRGRQPLESTTQLREILSVDPSLQVLVTGGLFDLAAPYFGTQMVLDQLPPTLAEKRVKFVVYPGGHMFYAEDAARQSLHDEVKAMMK”: the protein production entry is recorded as “failed”.
Then “GAPLQRMLDEIAGHAACPVVVTNLAHRVLATAGERSAVDDVLRDWERIARQAGGSEGAGWVRAELGGRGERWGRIVLCGYRGDAATGRLLADRAAEALVLHRMLGGSAHTWEEQSAQGLLTDLVSGVVPARQLLPRARAAGLPVNRRTFVPLVVRDGEPPVLDRVLRMLGLPGLVAELADGATAVLLSLARDQDAEALSAHFATRLRTESGASGTVVAAADPRTAWDDVPAGLREAQHVADAVAENSAVLDLPAVVRLRDVHLRGLIRLLRDDPYVQSFAERELNGLLCGRDAESDLLPVLRTYLATGRNKSRTAQLHHVSRPALYRRLEAIQARLGVDLDDFEQAASVHIALLAHDAQQ”, with “failed”.
Consider “GDAHDQQALDYALYHLRIMTPAHGERSSIAAKGLTGEGYKGHVFWDTEVFLLPFHLFSDPTVARSLLRYRWHNLPGAQEKARRNGWQGALFPWESARSGEEETPEFAAINIRTGLRQKVASAQAEHHLVADIAWAVIQYWQTTGDESFIAHEGMALLLETAKFWISRAVRVNDRLEIHDVIGPDEYTEHVNNNAFTSYMVYYNVQQALSIARQFGCSDDAFIHRAEMFLKELRLPEIQPDGVLPQDDSFMTKPAINLAKYKAAAGKQTILLDYSRAEVNEMQILKQADVVMLNYMLPEQFSSASCLANLQFYEPRTIHDSSLSKAIHGIVAARCGLLTQSYQFWREGTEIDLGADPHSCDDGIHAAATGAIWLGAIQGFA”, for which the protein production entry is “failed”.
